Substitutions are numbered along the chain they refer to.
T1: synthetic 13-residue sulfatase consensus motif peptide LCSPSRGSLFTGR
T1 chain: LCSPSRGSLFTGR

B1: Mycobacterium tuberculosis formylglycine generating enzyme (Mtb FGE, Rv0712), recombinant wild type (protein)
chain: LTELVDLPGGSFRMGSTRFYPEEAPIHTVTVRAFAVERHPVTNAQFAEFVSATGYVTVAEQPLDPGLYPGVDAADLCPGAMVFCPTAGPVDLRDWRQWWDWVPGACWRHPFGRDSDIADRAGHPVVQVAYPDAVAYARWAGRRLPTEAEWEYAARGGTTATYAWGDQEKPGGMLMANTWQGRFPYRNDGALGWVGTSPVGRFPANGFGLLDMIGNVWEWTTTEFYPHHRIDPPSTACCAPVKLATAADPTISQTLKGGSHLCAPEYCHRYRPAARSPQSQDTATTHIGFRCVADPVSG
B2: Strep FGE Cys272Ser mutant (protein)
chain: AVAAPSPAAAAEPGPAARPRSTRGQVRLPGGEFAMGDAFGEGYPADGETPVHTVRLRPFHIDETAVTNARFAAFVKATGHVTDAERFGSSAVFHLVVAAPDADVLGSAAGAPWWINVRGAHWRRPEGARSDITGRPNHPVVHVSWNDATAYARWAGKRLPTEAEWEYAARGGLAGRRYAWGDELTPGGRWRCNIWQGRFPHVNTAEDGHLSTAPVKSYRPNGHGLWNTAGNVWEWCSDWFSPTYYAESPTVDPHGPGTGAARVLRGGSYLSHDSYCNRYRVAARSSNTPDSSSGNLGFRCANDADLTSGSAAE
B3: Strep FGE Trp234Phe mutant (protein)
chain: B2 chain with W233F, S271C
B4: Strep FGE Cys277Ser mutant (protein)
chain: B2 chain with S271C, C276S
B5: Streptomyces coelicolor formylglycine generating enzyme (Strep FGE, SCO7548), recombinant wild type (protein)
chain: B2 chain with S271C

Biological target: T1, synthetic 13-residue sulfatase …

Row | Protein | conversion of cysteine to FGly in the peptide, by mass spectrometry (FGE activity assay)
1 | B1 | Recombinant Rv0712 was able to modify a synthetic peptide containing the sulfatase motif as determined by mass spectrometry
2 | B2 | serine mutants were unable to generate FGly in vitro
3 | B3 | mutation of Trp234 to Phe did not abolish activity
4 | B4 | serine mutants were unable to generate FGly in vitro
5 | B5 | WT Strep FGE was able to oxidize the synthetic peptide

From US8846866
